Test results: paper PMC3137072

Tests used:
[1] = molecular target: microtubules (polymerized tubulin) (UniProt Q6B856)
[2] = molecular target: filamentous actin (F-actin), non-muscle actin (UniProt P60709)

Chain of microtubules (polymerized tubulin) (Q6B856 whole entry, looked up): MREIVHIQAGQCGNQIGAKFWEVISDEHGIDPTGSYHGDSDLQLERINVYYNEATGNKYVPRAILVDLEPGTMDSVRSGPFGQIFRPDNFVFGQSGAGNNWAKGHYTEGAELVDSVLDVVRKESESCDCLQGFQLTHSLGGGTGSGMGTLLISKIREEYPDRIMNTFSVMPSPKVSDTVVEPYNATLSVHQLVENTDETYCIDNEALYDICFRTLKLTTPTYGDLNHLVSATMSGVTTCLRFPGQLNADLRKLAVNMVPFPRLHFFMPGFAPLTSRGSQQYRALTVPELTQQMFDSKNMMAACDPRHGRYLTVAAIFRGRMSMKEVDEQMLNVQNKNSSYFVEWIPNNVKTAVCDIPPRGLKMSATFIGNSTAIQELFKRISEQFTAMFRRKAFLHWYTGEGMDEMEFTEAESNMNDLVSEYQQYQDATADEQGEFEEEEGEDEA
Chain of G2L3-ΔGAR (GAS2-like 3 lacking the GAR domain), GFP-tagged (Q86XJ1 whole entry, stated change not applied, the tested form may be a part): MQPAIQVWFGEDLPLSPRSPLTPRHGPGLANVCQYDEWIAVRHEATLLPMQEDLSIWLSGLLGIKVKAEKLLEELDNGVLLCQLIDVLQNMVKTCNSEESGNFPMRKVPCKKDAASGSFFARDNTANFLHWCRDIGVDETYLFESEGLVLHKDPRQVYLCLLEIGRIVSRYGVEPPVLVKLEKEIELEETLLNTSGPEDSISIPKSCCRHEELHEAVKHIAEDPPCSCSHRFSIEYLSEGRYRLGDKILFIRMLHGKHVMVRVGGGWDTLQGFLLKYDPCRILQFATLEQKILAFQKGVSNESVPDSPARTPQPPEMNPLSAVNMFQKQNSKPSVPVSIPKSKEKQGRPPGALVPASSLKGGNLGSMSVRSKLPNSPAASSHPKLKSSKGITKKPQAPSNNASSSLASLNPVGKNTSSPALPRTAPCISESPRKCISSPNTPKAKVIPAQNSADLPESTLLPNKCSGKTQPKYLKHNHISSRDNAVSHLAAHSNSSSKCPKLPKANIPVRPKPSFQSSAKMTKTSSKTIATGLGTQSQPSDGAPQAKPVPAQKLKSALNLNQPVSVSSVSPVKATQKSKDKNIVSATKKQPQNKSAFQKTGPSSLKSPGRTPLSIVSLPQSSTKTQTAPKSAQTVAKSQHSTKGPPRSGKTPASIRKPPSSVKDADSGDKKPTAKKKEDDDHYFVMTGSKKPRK
Chain of G2L3-CH (calponin homology domain of GAS2-like 3) (Q86XJ1 48-168): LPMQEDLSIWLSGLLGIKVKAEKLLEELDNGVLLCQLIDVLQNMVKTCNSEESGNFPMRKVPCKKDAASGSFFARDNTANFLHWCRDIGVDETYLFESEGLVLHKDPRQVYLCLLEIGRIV

G2L3-C-term (C terminus of GAS2-like 3) (domain or fragment)
FRAP, t½ of recovery of GFP-tagged G2L3-C-term on MTs in NIH3T3 cells [1]: 3.9 s

G2L3-CH (calponin homology domain of GAS2-like 3) (from UniProt Q86XJ1 48-168) (domain or fragment)
FRAP, t½ of recovery of GFP-tagged G2L3-CH on actin filaments in NIH3T3 cells [2]: 28.5 s

G2L3-ΔCH (GAS2-like 3 lacking the CH domain), GFP-tagged (domain or fragment)
FRAP, t½ of recovery of GFP-tagged G2L3-ΔCH on MTs in NIH3T3 cells [1]: 15.3 s

G2L3-ΔGAR (GAS2-like 3 lacking the GAR domain), GFP-tagged (from UniProt Q86XJ1 1-694) (natural protein)
FRAP, t½ of recovery of GFP-tagged G2L3-ΔGAR on MTs in NIH3T3 cells [1]: 6 s
